Patent US7919579B2, “Imaging and therapeutic targeting of prostate and bladder tissues” (The Board of Regents of the University of Texas System, priority 2006, dated 2011)
“Also recorded” adds a separate entry of the source.

Tests used:
[1] = biodistribution of ^64Cu-DOTA-R11 in normal nude mice; type: in vivo; conditions: 5-10 μCi; % ID/g
Experimental: FIG. 6—Biodistribution data of ^64Cu-DOTA-R11 in normal nude mice (n=4). Data are presented as % ID/g±s.d. SV: seminal vesicle; CG: coagulation gland.
The injected dose of ^64Cu-DOTA-R11 in the biodistribution studies was in range of 5-10 μCi. The animals were sacrificed at specific time points (n=4 at each time point). Organs of interest were removed, weighed, and counted. Standards were prepared and counted along with the samples to calculate the percent injected dose per gram tissue (% ID/g).
In order to explore the application of R11 for the detection of bladder cancer metastasis via PET, the inventors conjugated this peptide with a bifunctional chelator, DOTA (1,4,7,10-tetraazacyclododecane-1,4,7,10-tetraacetic acid), so that R11 could be radiolabeled with ^64Cu. […] The radiolabeled peptide was purified via a C-18 cartridge (Millipore) to have >95% radiochemical purity as determined by radio-TLC and HPLC prior to the biodistribution and PET imaging studies. […] Organs of interest were removed, weighed, and counted. Standards were prepared and counted along with the samples to calculate the percent injected dose per gram tissue (% ID/g). […] In addition, the pharmacokinetics of the ^64Cu-labeled peptide was also evaluated by using a two-compartment model.

in vivo [2] = assay: in vivo; parameters: species or system nude mice; conditions: nude, mouse
Experimental: Peptides may be radiolabeled with ^18F or ^64Cu for in vitro and in vivo PET imaging evaluations. The peptides may be prepared using standard F-moc chemistry on an automated peptide synthesizer. Pharmacokinetic parameters of ^64Cu-labeled R11, the lead peptide, were evaluated by the inventors in preliminary experiments by using a two-compartment model. […] However, due to the unknown mechanism of the peptide specificity, it is reasonable to assume that a longer circulation time in the blood is preferable to enhance the image contrast. […]
The tissue distribution of the radiolabeled peptides or peptide conjugates may be evaluated in normal nude mice. […] At selected time points post-injection, animals may be sacrificed, and organs of interest removed, weighed, and counted. The percent injected dose per gram (% ID/g) and percent injected dose per organ (% ID/organ) can be calculated by comparison to a weighed, counted, standard. […] Specifically, blood (10-20-μL) can be drawn from the retroorbital sinus of the animals at 5-min, 10-min, 20-min, and 40-min, and counted on a gamma counter.
The pharmacokinetics of the ^64Cu-labeled peptide was also evaluated by using a two-compartment model. […]

in vivo [3] = assay: in vivo; parameters: species or system nude mice; conditions: nude, mouse; remark: listed apart in the source
Text: The lungs were removed from both mice. […] The harvested lungs were imaged by microPET again.

T24 lung metastases = conditions: mouse, in vivo
Experimental: (§1) The tumor-bearing animal model was established by injecting into the left flank of each nude mouse subcutaneously with human T24 cell suspension (2×10^6 cells in 100-μL of medium). The tumors were allowed to grow for 42 days prior to PET imaging. […] The microPET imaging studies were performed using the microPETR4 rodent scanner (Concorde Microsystems, Knoxville, Tenn.). The scanner provides a 10×8 cm field of view, and the scanner is currently capable of an axial and transaxial resolution of 2 mm, with an absolute sensitivity of 900 counts per second per μCi. Images were reconstructed using Fourier rebinning followed by two-dimensional filtered back projection. […] At 15 min, 60 min, and 4 hr post injection (p.i.), the mice were anesthetized and immobilized in a supine position on a support bed with attached anesthetic gas nose cones for data collection. The imaging collection time was 10 min.
(§2) After the 4-hr microPET imaging, the animals were sacrificed. The lungs were removed from both mice. […] The harvested lungs were imaged by microPET again.

in vivo [4] = conditions: nude, mouse, iv, uptake of control lungs
Experimental: as §1, §2

For `N=C(N)NCCCC(NC(=O)C(CCCNC(=N)N)NC(=O)C(CCCNC(=N)N)NC(=O)C(CCCNC(=N)N)NC(=O)C(CCCNC(=N)N)NC(=O)C(CCCNC(=N)N)NC(=O)C(CCCNC(=N)N)NC(=O)C(CCCNC(=N)N)NC(=O)C(CCCNC(=N)N)NC(=O)C(CCCNC(=N)N)NC(=O)C(CCCNC(=N)N)NC(=O)CNC(=O)CN1CCN(CC(=O)O)CCN(CC(=O)O)CCN(CC(=O)O)CC1)C(=O)O` (stereo not shown) [^64Cu-DOTA-R11, DOTA-G-RRRRRRRRRRR, metal not drawn], the “accumulation in prostate and bladder” value [1] was “strong tendency to accumulate in prostate and bladder”, the “uptake in other organs (blood, lungs, liver, spleen, kidneys, muscle)” value [1] was “remarkably low uptake in other organs; also recorded: remarkably low uptake by other organs” and the half-life (in vivo [2]; elimination half life from other organs (the secondary compartment)) was 17.2 h. For the same molecule, the half-life (in vivo [2]; half-life in the blood (the primary compartment)) was roughly 0.178 h, the tissue to tissue ratio (in vivo [3]) was greater than 8 and the “ex vivo microPET and autoradiography of lungs with T24 metastases” value (T24 lung metastases) was “elevated uptake”. For the same molecule, the tissue uptake at 0.25 h (in vivo [4]) was less than 4 %ID/g.
